Source: paper PMC2245940, “Blocking binding of Bacillus thuringiensis Cry1Aa to Bombyx mori cadherin receptor results in only a minor reduction of toxicity” (BMC Biochemistry, 2008)

B1: Bombyx mori aminopeptidase N (receptor)
chain: LSPIPVPEDEWVEFARMLRDPAFRLPTTTRPRHYQVTLTPYFDVVPANVNPFTFDGEVTIYTSPTVANVNEVVIHCNDLTIQSLSIGYQSGTNVVDITATGQTFACEMPFSFLRIRTTEALVLNREYIIKSTFRGNLQTNMRGFYRSWYVDSTGRRWMGTTQFQPGHARQAFPCYDEPGFKATFDITMNREESFSPTISNMPIRTTNTLANGRVSETFWTTPVTSTYLLAFIVSHYTVVSTNNNALRPFDIYARNNVGRTGDWSLEIGEKLLEAMEAYTQIPYYTMAENINMKQAAIPDFSAGAMENWGLLTYREALILYDPLNSNHFYKQRVANIVAHEIAHMWFGNLVTCAWWDNLWLNEGFARFYQYYLTASVAPELGYETRFIVEQVQMAMFSDSVDTAHALTDLNVNDPTTVSAHFSTITYARGAAILRMTQHLLGVETFVKGLRNYLRERQFNVAEPHHLFTALDAAAVEDGALNGYGGITIDTYFRTWSEKAGHPLLTVTINQRTGEMIVTQERWERNTGVSQFPSLWHIPITWTRAGAPEFEDLKPSQFISQQVTSINRGTTGLEWVIFNKQEAGFYRVNYDDTNWALLTRALRSSSRTAIHQLNRAQIVDDIFQLARANVMKYNRAFNILSFLQFEDEYAPWLAAISGFNFLIRRLAHDSTNAALLQKLILELSPAVVAKLGYLEPENGSYMTDLQRMYVMEFLCNVGHEECNNFGTQAFRRWSTGTFIPANMRPWVYCAGLRHGTAEDFNFFWNRYLQEDLSSEKVVMLNVAGCTTDQASLNRFLDAIVSGNDDIRPQDYNAALTSAITSNEINTLRAFQWLRNNVDQATRTLGSVSTILNTIIGRLLNEEQINEVSNWLTANQNTLGATYSTALRAIETTRSNLVWSQQRISEFTNYFESGYVEDVIEEITEAPPTAPPTAPPTEAPAVTPAPDSANVAALSFITLIITLAVNLA

Assays:
[1] = biological target: Bombyx mori cadherin-like protein BtR175 (Bombyx mori (endogenous in larval midgut))
[2] = biological target: Bombyx mori cadherin-like protein BtR175 (Bombyx mori (endogenous in larval midgut)); experiment: SPR; receptors (100-200 ng) amine-coupled to a CM5 chip; toxin 100-1000 nM injected in HBS pH 7.4 (10 mM Hepes, 150 mM NaCl, 3.4 mM EDTA) at 50 ul/min; blank flowcell subtracted; 1:1 Langmuir fit; apparent rate constants
[3] = biological target: T1, Bacillus thuringiensis Cry1Aa insecticidal protein, wild type, trypsin-activated toxin (Bacillus thuringiensis, UniProt P0A366 1-1176); experiment: as above; conditions: both partners purified
T1 construct: trypsin-resistant 65 kDa toxin cut from the solubilized protoxin; also called Cry1Aa (Wt); Cry1Aa wt; source: E. coli MV1190 containing pBN-1Aa; crystal inclusion bodies solubilized, trypsin-digested, purified (Superdex 200, monomeric fraction)

Row | Molecule | LC50 against B. mori larvae (surface contamination bioassay, mortality after 5 days) [1] | Kd [2] | koff [2] | kon [2] | Kd [3] | koff [3] | kon [3]
1 | Cry1Aa mutant toxin F328A, trypsin-activated (from UniProt P0A366 1-1176) (natural protein) | 41.5 ng/ccm | 60.7 nM | 9.1e-05 s⁻¹ | 1500 M⁻¹ s⁻¹ |  |  | 
2 | Bacillus thuringiensis Cry1Aa insecticidal protein, wild type, trypsin-activated toxin (from UniProt P0A366 1-1176) (natural protein) |  | 2.6 nM | 3.3e-05 s⁻¹ | 13000 M⁻¹ s⁻¹ |  |  | 
3 | B1 |  |  |  |  | 75 nM | 0.0015 s⁻¹ | 21000 M⁻¹ s⁻¹
